Results reported in US20250381223A1 (UTC THERAPEUTICS SHANGHAI, published 2025).

Tests used:
[1] = biological target: T1, CD28 (detection antigen of the BLI assay) (human, UniProt P10747 19-152, limits assumed); test: BLI (GATOR); antibody loaded at 30 nM, antigen 300-37.5 nM
T1 construct: also called the antigen
Source text: The affinity kinetics of the humanized antibodies were detected using biolayer interferometry (BLI). The experimental procedures were as follows: [0533] 1. GATOR instrument was run, and the Kinetics experimental mode was selected. [0534] 2. The analysis program was run according to Table 5

[2] = biological target: T2, recombinant Human/Cynomolgus CD28 (N-6His) (Human/Cynomolgus, UniProt P10747 19-152); test: ELISA; plate coated with CD28 (N-6His) 2 µg/mL; HRP-anti-hFc
T2 construct: Bought protein; also called antigen CD28; not shown: 6His tag at the N-terminus (N-6His)
Protocol: The binding activity of the humanized antibody to the antigen CD28 was detected by the ELISA method. The experimental procedures were as follows: [0525] 1. 30 μL of recombinant Human/Cynomolgus CD28 (N-6His) (Suzhou Novoprotein Scientific Inc., C406) at a concentration of 2 μg/mL was added to each well of an ELISA plate, and the plate was incubated at 4° C. overnight. [0526] 2. The next day, the ELISA plate was washed 3 times with PBST (containing 0.05% Tween-20). [0527] 3. 250 μL of 5% skim milk powder (dissolved in PBS) was added to each well of the ELISA plate, and the plate was incubated at room temperature for 2 h. [0528] 4. The plate was washed 3 times with PBST, antibodies with different dilution ratios were added to the ELISA plate at 30 μL/well, and the plate was incubated at room temperature for 60 min. [0529] 5. The plate was washed 3 times with PBST, 30 μL of HRP-anti-hFc antibody was added to each well, and the plate was incubated at room temperature for 60 min. [0530] 6. The plate was washed 3 times with PBST, 30 μL of TMB was added to each well, and after color development at room temperature, 30 μL of 2 M H₂SO₄ was added to each well to stop the reaction. The plate was read at 450 nm.

B1: huVH3huVL2 (antibody, human IgG1, kappa, V domains shown)
VH: QVQLQESGPGLVKPSETLSLTCTVSGFSLSDYGVHWVRQSPGKGLEWIGVIWAGGGTNYNSALKSRKTISKDNSKSQVSLKLSSVTAADTAVYYCARDKGYSYYYSMDYWGQGTTVTVSS
VL: DIQLTQSPSSLSASVGDRVTITCRASESVEYYVTSLMQWYQQKPGKAPKLLIFAASNVESGVPSRFSGSGSGTNFTLTISSVQPEDFATYFCQQSRKVPYTFGGGTKLEIKR
Kd [1]: 9.13 nM
koff [1]: 0.000782 s⁻¹
kon [1]: 85700 M⁻¹ s⁻¹
EC50 [2]: 0.00914 µg/mL

B2: huVH3huVL1 (antibody, human IgG1, kappa, V domains shown)
VH: QVQLQESGPGLVKPSETLSLTCTVSGFSLSDYGVHWVRQSPGKGLEWIGVIWAGGGTNYNSALKSRKTISKDNSKSQVSLKLSSVTAADTAVYYCARDKGYSYYYSMDYWGQGTTVTVSS
VL: DIQLTQSPSSLSVSVGDRVTISCRASESVEYYVTSLMQWYQQKPGQAPKLLIFAASNVESGVPSRFSGSGSGTNFTLTISSVQEEDFAMYFCQQSRKVPYTFGGGTKLEIKR
Kd [1]: 8.36 nM
koff [1]: 0.000727 s⁻¹
kon [1]: 86900 M⁻¹ s⁻¹
EC50 [2]: 0.0121 µg/mL

B3: huVH2huVL2 (antibody, human IgG1, kappa, V domains shown)
VH: QVQLQESGPGLVKPSETLSITCTVSGFSLSDYGVHWVRQPPGKGLEWLGVIWAGGGTNYNSALMSRKTISKDTSKNQVSLKMSSLTAADTAVYYCARDKGYSYYYSMDYWGQGTTVTVSS
VL: DIQLTQSPSSLSASVGDRVTITCRASESVEYYVTSLMQWYQQKPGKAPKLLIFAASNVESGVPSRFSGSGSGTNFTLTISSVQPEDFATYFCQQSRKVPYTFGGGTKLEIKR
Kd [1]: 6.59 nM
koff [1]: 0.000584 s⁻¹
kon [1]: 88700 M⁻¹ s⁻¹
EC50 [2]: 0.0126 µg/mL

B4: huVH2huVL3 (antibody, human IgG1, kappa, V domains shown)
VH: QVQLQESGPGLVKPSETLSITCTVSGFSLSDYGVHWVRQPPGKGLEWLGVIWAGGGTNYNSALMSRKTISKDTSKNQVSLKMSSLTAADTAVYYCARDKGYSYYYSMDYWGQGTTVTVSS
VL: DIQLTQSPSSLSASVGDRVTITCRASESVEYYVTSLMQWYQQKPGKAPKLLIFAASNVESGVPSRFSGSGSGTDFTLTISSLQPEDFATYYCQQSRKVPYTFGGGTKLEIKR
Kd [1]: 7.44 nM
koff [1]: 0.000635 s⁻¹
kon [1]: 85400 M⁻¹ s⁻¹
EC50 [2]: 0.0104 µg/mL

B5: huVH1huVL2 (antibody, human IgG1, kappa, V domains shown)
VH: QVKLQESGPGLVKPSETLSITCTVSGFSLSDYGVHWVRQSPGKGLEWLGVIWAGGGTNYNSALMSRKTISKDNSKSQVFLKMSSLTAADTAVYYCARDKGYSYYYSMDYWGQGTTVTVSS
VL: DIQLTQSPSSLSASVGDRVTITCRASESVEYYVTSLMQWYQQKPGKAPKLLIFAASNVESGVPSRFSGSGSGTNFTLTISSVQPEDFATYFCQQSRKVPYTFGGGTKLEIKR
Kd [1]: 6.54 nM
koff [1]: 0.000582 s⁻¹
kon [1]: 89000 M⁻¹ s⁻¹
EC50 [2]: 0.0125 µg/mL

B6: huVH1huVL1 (antibody, human IgG1, kappa, V domains shown)
VH: QVKLQESGPGLVKPSETLSITCTVSGFSLSDYGVHWVRQSPGKGLEWLGVIWAGGGTNYNSALMSRKTISKDNSKSQVFLKMSSLTAADTAVYYCARDKGYSYYYSMDYWGQGTTVTVSS
VL: DIQLTQSPSSLSVSVGDRVTISCRASESVEYYVTSLMQWYQQKPGQAPKLLIFAASNVESGVPSRFSGSGSGTNFTLTISSVQEEDFAMYFCQQSRKVPYTFGGGTKLEIKR
notes: also called huVH1VL1; 9.3h11
Kd [1]: 6.13 nM
koff [1]: 0.000531 s⁻¹
kon [1]: 86600 M⁻¹ s⁻¹
EC50 [2]: 0.0151 µg/mL

B7: huVH3huVL3 (antibody, human IgG1, kappa, V domains shown)
VH: QVQLQESGPGLVKPSETLSLTCTVSGFSLSDYGVHWVRQSPGKGLEWIGVIWAGGGTNYNSALKSRKTISKDNSKSQVSLKLSSVTAADTAVYYCARDKGYSYYYSMDYWGQGTTVTVSS
VL: DIQLTQSPSSLSASVGDRVTITCRASESVEYYVTSLMQWYQQKPGKAPKLLIFAASNVESGVPSRFSGSGSGTDFTLTISSLQPEDFATYYCQQSRKVPYTFGGGTKLEIKR
Kd [1]: 9.59 nM
koff [1]: 0.000818 s⁻¹
kon [1]: 85300 M⁻¹ s⁻¹
EC50 [2]: 0.00827 µg/mL
